doi:10.1101/835280, “Bayesian Modeling Reveals Ultrasensitivity Underlying Metabolic Compensation in the Cyanobacterial Circadian Clock” (bioRxiv, 2019)

T1: KaiA (Synechococcus elongatus PCC 7942, UniProt Q79PF6 1-284)
T1 construct: KaiA, circadian clock protein of Synechococcus elongatus PCC 7942; source: expressed and purified as previously described (Phong et al., 2013), anion exchange on HiTrap Q
T1 sequence (looked up): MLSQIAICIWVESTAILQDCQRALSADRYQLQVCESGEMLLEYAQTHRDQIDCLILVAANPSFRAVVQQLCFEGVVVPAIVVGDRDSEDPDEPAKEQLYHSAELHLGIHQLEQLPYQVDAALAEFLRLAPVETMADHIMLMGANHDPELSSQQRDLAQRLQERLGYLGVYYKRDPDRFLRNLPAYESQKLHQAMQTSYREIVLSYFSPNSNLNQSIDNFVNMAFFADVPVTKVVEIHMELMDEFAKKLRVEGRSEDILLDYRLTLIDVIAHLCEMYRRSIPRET


Tests used:
[1] = target: the molecule itself; test: SEC; size-exclusion chromatography on a Superdex 75 16/60 prep grade column, last step of the purification of the 15N-labelled KaiA domains
KaiA = target: T1, KaiA; test: co-IP; immunoprecipitation of KaiB-FLAG from an in vitro clock reaction of purified KaiA, KaiB-FLAG and KaiC (20 mM Tris-HCl pH 8, 150 mM NaCl, 5 mM MgCl2, 0.5 mM EDTA, 10% glycerol), time course; KaiA left in the supernatant read by SDS-PAGE (SYPRO Ruby) against 1.5 uM GFP as internal standard; settings: both partners purified

Binder | stoichiometry N [1] | binding result (KaiA)
C-terminal domain of KaiA (residues 181-284) (domain or fragment, Synechococcus elongatus PCC 7942, UniProt Q79PF6 181-284, looked up, KaiA, Synechococcus elongatus PCC 7942, C-terminal domain, residues 181-284; U-[15N] labelled, grown in deuterated water; also called C-terminal KaiA; C-terminal fragment of KaiA; source: E. coli BL21(DE3), M9 medium with 15N-NH4Cl in 98% D2O, purified (Ni-NTA, SEC on Superdex 75)) NLPAYESQKLHQAMQTSYREIVLSYFSPNSNLNQSIDNFVNMAFFADVPVTKVVEIHMELMDEFAKKLRVEGRSEDILLDYRLTLIDVIAHLCEMYRRSIPRET | 2 | 
KaiB-FLAG (natural protein, Synechococcus elongatus PCC 7942, UniProt Q79PF5 1-102, looked up, KaiB, circadian clock protein of Synechococcus elongatus PCC 7942; also called FLAG-tagged KaiB; source: expressed and purified as previously described (Phong et al., 2013), anion exchange on HiTrap Q) MSPRKTYILKLYVAGNTPNSVRALKTLKNILEVEFQGVYALKVIDVLKNPQLAEEDKILATPTLAKVLPLPVRRIIGDLSDREKVLIGLDLLYGELQDSDDF |  | binds
